Test system: C=C(OP(=O)(O)O)C(=O)O
Test: purified protein, by the assay type
Details: ADP 0.8 mM, pH 7.5

Chain of PKM2 N70D (Homo sapiens; N70D) (chain, as listed by the source N70D N70D): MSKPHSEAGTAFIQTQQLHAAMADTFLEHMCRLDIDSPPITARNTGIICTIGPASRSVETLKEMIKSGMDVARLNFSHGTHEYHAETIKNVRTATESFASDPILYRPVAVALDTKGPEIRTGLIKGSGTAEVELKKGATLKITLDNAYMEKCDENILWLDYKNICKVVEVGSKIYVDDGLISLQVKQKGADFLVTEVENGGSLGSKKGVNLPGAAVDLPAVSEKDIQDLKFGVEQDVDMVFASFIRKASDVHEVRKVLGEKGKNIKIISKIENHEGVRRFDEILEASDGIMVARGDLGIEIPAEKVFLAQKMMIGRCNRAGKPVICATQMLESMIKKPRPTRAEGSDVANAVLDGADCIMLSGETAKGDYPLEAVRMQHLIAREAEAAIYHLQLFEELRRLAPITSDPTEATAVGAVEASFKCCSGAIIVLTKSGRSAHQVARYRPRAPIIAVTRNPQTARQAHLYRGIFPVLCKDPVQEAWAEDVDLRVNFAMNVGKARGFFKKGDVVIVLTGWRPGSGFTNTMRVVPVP
Chain of PKM2 R106A (Homo sapiens; R106A) (chain, as listed by the source R106A R106A): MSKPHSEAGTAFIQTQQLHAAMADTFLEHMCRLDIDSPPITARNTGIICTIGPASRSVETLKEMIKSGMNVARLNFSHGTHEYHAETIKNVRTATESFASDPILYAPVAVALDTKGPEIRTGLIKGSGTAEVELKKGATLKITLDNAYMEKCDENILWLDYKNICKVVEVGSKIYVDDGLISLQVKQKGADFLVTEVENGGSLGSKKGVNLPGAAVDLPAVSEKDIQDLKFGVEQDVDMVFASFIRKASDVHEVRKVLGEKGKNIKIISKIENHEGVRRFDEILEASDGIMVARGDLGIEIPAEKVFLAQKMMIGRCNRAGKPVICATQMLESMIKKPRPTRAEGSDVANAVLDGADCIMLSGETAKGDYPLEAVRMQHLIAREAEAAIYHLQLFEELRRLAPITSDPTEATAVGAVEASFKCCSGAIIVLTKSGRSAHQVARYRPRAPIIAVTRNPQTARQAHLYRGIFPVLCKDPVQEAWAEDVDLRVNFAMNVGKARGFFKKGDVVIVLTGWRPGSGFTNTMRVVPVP
Chain of PKM2 N75L (Homo sapiens; N75L) (chain, as listed by the source N75L N75L): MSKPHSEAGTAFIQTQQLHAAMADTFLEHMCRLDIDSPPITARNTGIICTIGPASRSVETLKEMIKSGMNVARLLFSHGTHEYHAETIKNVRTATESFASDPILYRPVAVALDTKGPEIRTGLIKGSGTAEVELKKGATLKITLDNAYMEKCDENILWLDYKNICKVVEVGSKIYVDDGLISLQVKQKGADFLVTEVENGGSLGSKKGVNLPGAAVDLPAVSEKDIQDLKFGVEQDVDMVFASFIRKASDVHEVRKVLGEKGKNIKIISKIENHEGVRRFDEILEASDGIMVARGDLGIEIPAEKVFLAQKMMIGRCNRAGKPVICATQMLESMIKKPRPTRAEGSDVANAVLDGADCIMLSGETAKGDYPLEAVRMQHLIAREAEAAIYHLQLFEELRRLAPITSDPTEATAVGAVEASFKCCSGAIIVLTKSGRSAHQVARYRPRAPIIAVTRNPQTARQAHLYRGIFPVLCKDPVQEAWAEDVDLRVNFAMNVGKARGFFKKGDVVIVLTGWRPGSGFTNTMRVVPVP

Substance: PKM2 N70D (Homo sapiens; N70D)
- Km (other: 65 nM PKM2 N70D, no AA): 780 ± 160 µM
- kcat/Km (other: 65 nM PKM2 N70D, no AA): 5.9±1.3 ×10^3 mM^-1 min^-1

Substance: wtPKM2 (Homo sapiens)
- Km (other: 10 nM wtPKM2, no AA): 700 µM

Substance: PKM2 R106A (Homo sapiens; R106A)
- Km (other: 50 nM PKM2 R106A, no AA): 510 ± 40 µM
- kcat/Km (other: 50 nM PKM2 R106A, no AA): 9.6±0.8 ×10^3 mM^-1 min^-1

Substance: PKM2 N75L (Homo sapiens; N75L)
- Km (other: 4200 nM PKM2 N75L, no AA): 80 µM

From article PMC10004559, “Identification of residues involved in allosteric signal transmission from amino acid binding site of pyruvate kinase muscle isoform 2” (PLOS ONE, 2023)
